In series [1] the test system is HeLa Kyoto. The series is described as follows: melting temperature (median over replicates), in situ; higher = more thermally stable.
Series [2] has as its system HeLa Kyoto. As to the kind of experiment: solubility in G1/S (NP-40 vs SDS abundance) (log2 ratio); higher = more soluble. The conditions noted are these: cell cycle stage: G1/S.
The test system of series [3] is HeLa Kyoto. As to the kind of experiment: solubility change mitosis vs G1/S (difference of NP-40 vs SDS log2 ratios) (log2 ratio difference); higher = more soluble in mitosis.
For series [4], the system named is HeLa Kyoto. As to the kind of experiment: thermal stability score vs G1/S (z-score of summed log2 fold changes over temperatures); higher = more thermally stable than in G1/S.
[5] abbreviates: cell cycle stage: early G1 (4.5 h after nocodazole release).
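For melting temperature (median over replicates), in situ in this document: HeLa Kyoto cells synchronized by double thymidine or nocodazole block, proteins quantified by TMT10plex mass spectrometry, three independent biological replicates.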
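For solubility change mitosis vs G1/S (difference of NP-40 vs SDS log2 ratios) in this document: synchronized HeLa Kyoto cells (double thymidine block for G1/S, nocodazole release for mitosis), protein amounts in NP-40 versus SDS lysates quantified by mass spectrometry, three biological replicates.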
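For solubility in G1/S (NP-40 vs SDS abundance) in this document: HeLa Kyoto cells arrested at G1/S by double thymidine block, proteins quantified by TMT10plex mass spectrometry in mild NP-40 versus SDS extracts, three biological replicates.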
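For thermal stability score vs G1/S (z-score of summed log2 fold changes over temperatures) in this document: synchronized HeLa Kyoto cells, proteins quantified by TMT10plex mass spectrometry, three biological replicates, mitosis taken 0.5 h after nocodazole release, G1/S directly after double thymidine block.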

In the case of “MKDSENKGASSPDMEPSYGGGLFDMVKGGAGRLFSNLKDNLKDTLKDTSSRVIQSVTSYTKGDLDFTYVTSRIIVMSFPLDNVDIGFRNQVDDIRSFLDSRHLDHYTVYNLSPKSYRTAKFHSRVSECSWPIRQAPSLHNLFAVCRNMYNWLLQNPKNVCVVHCLDGRAASSILVGAMFIFCNLYSTPGPAIRLLYAKRPGIGLSPSHRRYLGYMCDLLADKPYRPHFKPLTIKSITVSPIPFFNKQRNGCRPYCDVLIGETKIYSTCTDFERMKEYRVQDGKIFIPLNITVQGDVVVSMYHLRSTIGSRLQAKVTNTQIFQLQFHTGFIPLDTTVLKFTKPELDACDVPEKYPQLFQVTLDVELQPHDKVIDLTPPWEHYCTKDVNPSILFSSHQEHQDTLALGGQAPIDIPPDNPRHYGQSGFFASLCWQDQKSEKSFCEEDHAALVNQESEQSDDELLTLSSPHGNANGDKPHGVKKPSKKQQEPAAPPPPEDVDLLGLEGSAMSNSFSPPAAPPTNSELLSDLFGGGGAAGPTQAGQSGVEDVFHPSGPASTQSTPRRSATSTSASPTLRVGEGATFDPFGAPSKPSGQDLLGSFLNTSSASSDPFLQPTRSPSPTVHASSTPAVNIQPDVSGGWDWHAKPGGFGMGSKSAATSPTGSSHGTPTHQSKPQTLDPFADLGTLGSSSFASKPTTPTGLGGGFPPLSSPQKASPQPMGGGWQQGGAYNWQQPQPKPQPSMPHSSPQNRPNYNVSFSAMPGGQNERGKGSSNLEGKQKAADFEDLLSGQGFNAHKDKKGPRTIAEMRKEEMAKEMDPEKLKILEWIEGKERNIRALLSTMHTVLWAGETKWKPVGMADLVTPEQVKKVYRKAVLVVHPDKATGQPYEQYAKMIFMELNDAWSEFENQGQKPLY [DNAJC6]”, the values for the melting temperature with HeLa Kyoto [1] (cell cycle stage: G1/S) and in the series on HeLa Kyoto [1] (cell cycle stage: mitosis) were 51.6 °C and 51.7 °C, respectively. Further, in the series with HeLa Kyoto [2], the “solubility in G1/S (log2)” value is 0.0466. For the same sequence, in the series on HeLa Kyoto [3], the “solubility change mitosis (log2)” value is -0.112. For the same sequence, the results for the thermal stability score in the series on HeLa Kyoto [4] (setting [5]) and in the series on HeLa Kyoto [4] (cell cycle stage: mitosis) were -0.0779 and -0.888, respectively.

In the case of “MSLEQEEETQPGRLLGRRDAVPAFIEPNVRFWITERQSFIRRFLQWTELLDPTNVFISVESIENSRQLLCTNEDVSSPASADQRIQEAWKRSLATVHPDSSNLIPKLFRPAAFLPFMAPTVFLSMTPLKGIKSVILPQVFLCAYMAAFNSINGNRSYTCKPLERSLLMAGAVASSTFLGVIPQFVQMKYGLTGPWIKRLLPVIFLVQASGMNVYMSRSLESIKGIAVMDKEGNVLGHSRIAGTKAVRETLASRIVLFGTSALIPEVFTYFFKRTQYFRKNPGSLWILKLSCTVLAMGLMVPFSFSIFPQIGQIQYCSLEEKIQSPTEETEIFYHRGV [SFXN4]”, the melting temperature in the series with HeLa Kyoto [1] (cell cycle stage: G1/S) turned out to be 53.9 °C; in the series with HeLa Kyoto [1] (cell cycle stage: mitosis), 54.8 °C. In the series on HeLa Kyoto [2], the “solubility in G1/S (log2)” value was -0.194. Also, the “solubility change mitosis (log2)” value in the series with HeLa Kyoto [3] is -0.195. Besides, the thermal stability score was 0.0593 in the series on HeLa Kyoto [4] (setting [5]) and -1.77 with HeLa Kyoto [4] (cell cycle stage: mitosis).

For the sequence “MAMRQTPLTCSGHTRPVVDLAFSGITPYGYFLISACKDGKPMLRQGDTGDWIGTFLGHKGAVWGATLNKDATKAATAAADFTAKVWDAVSGDELMTLAHKHIVKTVDFTQDSNYLLTGGQDKLLRIYDLNKPEAEPKEISGHTSGIKKALWCSEDKQILSADDKTVRLWDHATMTEVKSLNFNMSVSSMEYIPEGEILVITYGRSIAFHSAVSLDPIKSFEAPATINSASLHPEKEFLVAGGEDFKLYKYDYNSGEELESYKGHFGPIHCVRFSPDGELYASGSEDGTLRLWQTVVGKTYGLWKCVLPEEDSGELAKPKIGFPETTEEELEEIASENSDCIFPSAPDVKA [STRAP]”, the melting temperature in the series with HeLa Kyoto [1] (cell cycle stage: G1/S) was determined as 52.3 °C; in the series on HeLa Kyoto [1] (cell cycle stage: mitosis) it was 52.2 °C. Also, the “solubility in G1/S (log2)” value with HeLa Kyoto [2] turned out to be 0.14. The “solubility change mitosis (log2)” value in the series on HeLa Kyoto [3] was -0.127. Further, the thermal stability score with HeLa Kyoto [4] (setting [5]) is -1.2; in the series with HeLa Kyoto [4] (cell cycle stage: mitosis), -3.1.

Regarding “MRLTRCQAALAAAITLNLLVLFYVSWLQHQPRNSRARGPRRASAAGPRVTVLVREFEAFDNAVPELVDSFLQQDPAQPVVVAADTLPYPPLALPRIPNVRLALLQPALDRPAAASRPETYVATEFVALVPDGARAEAPGLLERMVEALRAGSARLVAAPVATANPARCLALNVSLREWTARYGAAPAAPRCDALDGDAVVLLRARDLFNLSAPLARPVGTSLFLQTALRGWAVQLLDLTFAAARQPPLATAHARWKAEREGRARRAALLRALGIRLVSWEGGRLEWFGCNKETTRCFGTVVGDTPAYLYEERWTPPCCLRALRETARYVVGVLEAAGVRYWLEGGSLLGAARHGDIIPWDYDVDLGIYLEDVGNCEQLRGAEAGSVVDERGFVWEKAVEGDFFRVQYSESNHLHVDLWPFYPRNGVMTKDTWLDHRQDVEFPEHFLQPLVPLPFAGFVAQAPNNYRRFLELKFGPGVIENPQYPNPALLSLTGSG [FKRP]”, the values for the melting temperature in the series on HeLa Kyoto [1] (cell cycle stage: G1/S) and in the series on HeLa Kyoto [1] (cell cycle stage: mitosis) were 54.5 °C and 55.1 °C, respectively. Moreover, in the series on HeLa Kyoto [2], the “solubility in G1/S (log2)” value came to 0.127. In the series with HeLa Kyoto [3], the “solubility change mitosis (log2)” value was 0.00852. Besides, the results for the thermal stability score in the series on HeLa Kyoto [4] (setting [5]) and in the series with HeLa Kyoto [4] (cell cycle stage: mitosis) were -1.33 and 0.366, respectively.

“MANRTVKDAHSIHGTNPQYLVEKIIRTRIYESKYWKEECFGLTAELVVDKAMELRFVGGVYGGNIKPTPFLCLTLKMLQIQPEKDIIVEFIKNEDFKYVRMLGALYMRLTGTAIDCYKYLEPLYNDYRKIKSQNRNGEFELMHVDEFIDELLHSERVCDIILPRLQKRYVLEEAEQLEPRVSALEEDMDDVESSEEEEEEDEKLERVPSPDHRRRSYRDLDKPRRSPTLRYRRSRSRSPRRRSRSPKRRSPSPRRERHRSKSPRRHRSRSRDRRHRSRSKSPGHHRSHRHRSHSKSPERSKKSHKKSRRGNE [PRPF38A]”: the results for the melting temperature with HeLa Kyoto [1] (cell cycle stage: G1/S) and in the series with HeLa Kyoto [1] (cell cycle stage: mitosis) were 49 °C and 48.6 °C, respectively. The “solubility in G1/S (log2)” value with HeLa Kyoto [2] is -1.32. For the same sequence, in the series on HeLa Kyoto [3], the “solubility change mitosis (log2)” value worked out at 0.372. For the same sequence, the thermal stability score in the series with HeLa Kyoto [4] (setting [5]) is -0.0926; with HeLa Kyoto [4] (cell cycle stage: mitosis), 1.13.

For the sequence “MEIGTEISRKIRSAIKGKLQELGAYVDEELPDYIMVMVANKKSQDQMTEDLSLFLGNNTIRFTVWLHGVLDKLRSVTTEPSSLKSSDTNIFDSNVPSNKSNFSRGDERRHEAAVPPLAIPSARPEKRDSRVSTSSQESKTTNVRQTYDDGAATRLMSTVKPLREPAPSEDVIDIKPEPDDLIDEDLNFVQENPLSQKKPTVTLTYGSSRPSIEIYRPPASRNADSGVHLNRLQFQQQQNSIHAAKQLDMQSSWVYETGRLCEPEVLNSLEETYSPFFRNNSEKMSMEDENFRKRKLPVVSSVVKVKKFNHDGEEEEEDDDYGSRTGSISSSVSVPAKPERRPSLPPSKQANKNLILKAISEAQESVTKTTNYSTVPQKQTLPVAPRTRTSQEELLAEVVQGQSRTPRISPPIKEEETKGDSVEKNQGTQQRQLLSRLQIDPVMAETLQMSQDYYDMESMVHADTRSFILKKPKLSEEVVVAPNQESGMKTADSLRVLSGHLMQTRDLVQPDKPASPKFIVTLDGVPSPPGYMSDQEEDMCFEGMKPVNQTAASNKGLRGLLHPQQLHLLSRQLEDPNGSFSNAEMSELSVAQKPEKLLERCKYWPACKNGDECAYHHPISPCKAFPNCKFAEKCLFVHPNCKYDAKCTKPDCPFTHVSRRIPVLSPKPAVAPPAPPSSSQLCRYFPACKKMECPFYHPKHCRFNTQCTRPDCTFYHPTINVPPRHALKWIRPQTSE [ZC3H14]”, the melting temperature in the series on HeLa Kyoto [1] (cell cycle stage: G1/S) amounted to 49.7 °C; with HeLa Kyoto [1] (cell cycle stage: mitosis), 51.2 °C. The “solubility in G1/S (log2)” value in the series with HeLa Kyoto [2] is -0.475. The “solubility change mitosis (log2)” value in the series with HeLa Kyoto [3] was 0.656. The thermal stability score in the series with HeLa Kyoto [4] (setting [5]) was -0.823; with HeLa Kyoto [4] (cell cycle stage: mitosis), 0.321.

Regarding “MAASVVCRAATAGAQVLLRARRSPALLRTPALRSTATFAQALQFVPETQVSLLDNGLRVASEQSSQPTCTVGVWIDVGSRFETEKNNGAGYFLEHLAFKGTKNRPGSALEKEVESMGAHLNAYSTREHTAYYIKALSKDLPKAVELLGDIVQNCSLEDSQIEKERDVILREMQENDASMRDVVFNYLHATAFQGTPLAQAVEGPSENVRKLSRADLTEYLSTHYKAPRMVLAAAGGVEHQQLLDLAQKHLGGIPWTYAEDAVPTLTPCRFTGSEIRHRDDALPFAHVAIAVEGPGWASPDNVALQVANAIIGHYDCTYGGGVHLSSPLASGAVANKLCQSFQTFSICYAETGLLGAHFVCDRMKIDDMMFVLQGQWMRLCTSATESEVARGKNILRNALVSHLDGTTPVCEDIGRSLLTYGRRIPLAEWESRIAEVDASVVREICSKYIYDQCPAVAGYGPIEQLPDYNRIRSGMFWLRF [UQCRC1]”, the melting temperature with HeLa Kyoto [1] (cell cycle stage: G1/S) was 55.3 °C; in the series with HeLa Kyoto [1] (cell cycle stage: mitosis), 54.2 °C. Also, the “solubility in G1/S (log2)” value with HeLa Kyoto [2] is 0.324. In addition, the “solubility change mitosis (log2)” value in the series with HeLa Kyoto [3] is -0.0237. In addition, the thermal stability score is -0.504 in the series on HeLa Kyoto [4] (setting [5]) and -3.84 in the series on HeLa Kyoto [4] (cell cycle stage: mitosis).

The values are drawn from the supplement of paper PMC5998384.
